# In the supplement of paper PMC9112550, “Optimization of the antimicrobial peptide Bac7 by deep mutational scanning” (BMC Biology, 2022):
# Tested on: Escherichia coli TOP10
# Test: shrunken log2 fold change of peptide-encoding DNA abundance (4.5 h post-induction vs induction); higher = less antimicrobial activity (less host growth inhibition)
# Settings: time post-induction: 4.5 h; library: site-saturation at positions 5, 18, 19, 20
# 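Note: peptides expressed intracellularly from a pBAD plasmid library in pooled LB shake-flask culture, induced with 0.3% L-arabinose, DNA abundance read by NGS, three biological replicates, DESeq2 with apeglm shrinkage.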
row,Sequence,shrunken log2 fold change
1,RRIRKRPPRLPRPRPRPPDSPRP,0.189
2,RRIRCRPPRLPRPRPRPIMTPRP,-0.00708
3,RRIRYRPPRLPRPRPRPEPNPRP,-0.0357
4,RRIRMRPPRLPRPRPRPTIDPRP,0.0912
5,RRIRTRPPRLPRPRPRPMKDPRP,-0.303
6,RRIRPRPPRLPRPRPRPGYAPRP,0.177
7,RRIRARPPRLPRPRPRPQYNPRP,-0.334
8,RRIRHRPPRLPRPRPRPDFMPRP,-0.0635
9,RRIRHRPPRLPRPRPRPPWHPRP,-0.0707
10,RRIRMRPPRLPRPRPRPHFKPRP,-0.0841
11,RRIRYRPPRLPRPRPRPYMDPRP,-0.14
12,RRIRSRPPRLPRPRPRPELMPRP,0.469
13,RRIRFRPPRLPRPRPRPFIQPRP,-0.707
14,RRIRERPPRLPRPRPRPACVPRP,0.24
15,RRIRNRPPRLPRPRPRPTEMPRP,-0.283
16,RRIRPRPPRLPRPRPRPIHEPRP,0.152
17,RRIRSRPPRLPRPRPRPVSHPRP,-0.188
18,RRIRIRPPRLPRPRPRPVYTPRP,-0.346
19,RRIRKRPPRLPRPRPRPVDIPRP,-0.0337
20,RRIRTRPPRLPRPRPRPLKHPRP,-0.315
21,RRIRFRPPRLPRPRPRPIWLPRP,-0.17
22,RRIRGRPPRLPRPRPRPKFDPRP,0.867
23,RRIRTRPPRLPRPRPRPEPWPRP,0.291

row,Sequence,shrunken log2 fold change
1,RRIRTRPPRLPRPRPRPGWGPRP,0.343
2,RRIRARPPRLPRPRPRPIMAPRP,0.0923
3,RRIRARPPRLPRPRPRPYADPRP,0.103
4,RRIRKRPPRLPRPRPRPDEMPRP,0.188
5,RRIRERPPRLPRPRPRPCPRPRP,-0.021
6,RRIRTRPPRLPRPRPRPIMGPRP,-0.0135
7,RRIRGRPPRLPRPRPRPTGPPRP,0.692
8,RRIRCRPPRLPRPRPRPFFVPRP,-0.209
9,RRIRMRPPRLPRPRPRPKTGPRP,0.895
10,RRIRFRPPRLPRPRPRPHFWPRP,-0.124
11,RRIRQRPPRLPRPRPRPEWKPRP,-0.00192
12,RRIRRRPPRLPRPRPRPGRYPRP,0.218
13,RRIRPRPPRLPRPRPRPLEQPRP,0.169
14,RRIRLRPPRLPRPRPRPWVKPRP,-0.0122
15,RRIRFRPPRLPRPRPRPWIIPRP,-0.00565
16,RRIRVRPPRLPRPRPRPKEHPRP,0.0755
17,RRIRTRPPRLPRPRPRPQCQPRP,-0.0883
18,RRIRNRPPRLPRPRPRPCCHPRP,-0.00931
19,RRIRIRPPRLPRPRPRPKDGPRP,-0.105
20,RRIRFRPPRLPRPRPRPNFTPRP,-0.0305
21,RRIRFRPPRLPRPRPRPPIHPRP,-0.255
22,RRIRYRPPRLPRPRPRPPATPRP,0.407
23,RRIRDRPPRLPRPRPRPVGHPRP,0.423

row,Sequence,shrunken log2 fold change
1,RRIRTRPPRLPRPRPRPGTMPRP,-0.254
2,RRIRTRPPRLPRPRPRPREAPRP,0.388
3,RRIRRRPPRLPRPRPRPCVEPRP,-0.0155
4,RRIRYRPPRLPRPRPRPLEAPRP,0.0153
5,RRIRLRPPRLPRPRPRPMYWPRP,-0.115
6,RRIRLRPPRLPRPRPRPEYYPRP,-0.0599
7,RRIRWRPPRLPRPRPRPGISPRP,-0.00138
8,RRIRFRPPRLPRPRPRPQVHPRP,-0.262
9,RRIRGRPPRLPRPRPRPNYFPRP,0.0394
10,RRIRLRPPRLPRPRPRPMTEPRP,-0.0455
11,RRIRQRPPRLPRPRPRPLLFPRP,-0.0219
12,RRIRNRPPRLPRPRPRPHNYPRP,-0.968
13,RRIRWRPPRLPRPRPRPTRPPRP,0.855
14,RRIRGRPPRLPRPRPRPEDTPRP,1.58
15,RRIRIRPPRLPRPRPRPCSPPRP,-0.271
16,RRIRYRPPRLPRPRPRPMGVPRP,-0.762
17,RRIRERPPRLPRPRPRPWWPPRP,-0.155
18,RRIRLRPPRLPRPRPRPPSCPRP,0.341
19,RRIRYRPPRLPRPRPRPPMLPRP,-0.492
20,RRIRPRPPRLPRPRPRPSAHPRP,-0.167
21,RRIRPRPPRLPRPRPRPYMYPRP,-0.634
